This data set deals with P04156. The note with it: AUC.

In the case of Recombinant huPrP (23-230) from E. coli, the “percent of total signal as aggregates” value is on record as “about 71 % of total signal” and the “percent of total signal as large aggregates” value is 58.3 % of total signal.

The values above are taken from publication doi:10.1101/2025.03.30.646161.
